Measured values published in paper PMC7239026, “PepO is a target of the two-component systems VicRK and CovR required for systemic virulence of Streptococcus mutans” (Virulence, 2020).

Experiments:
[1] = target: T1, human complement protein C1q (human, UniProt P02745 23-245; P02746 28-253; P02747 29-245); assay: ELISA; human glycoproteins coated on 96-well plates (5 ug/mL in 75 mM sodium carbonate buffer pH 9.6, 18 h at 4°C); blocked with 3% fish gelatin; rPepO (10 to 50 ug/mL) or rCnmA (0.125 to 2 ug/mL) in 50 mM HEPES pH 7.4, 150 mM NaCl, 2 mM CaCl2, 50 ug/mL BSA, 2 h at 37°C; bound protein detected with rabbit antiserum and peroxidase conjugate, A450 nm; wells with 1% BSA as control; details: both partners purified
T1 construct: Complement C1q subcomponent subunit A, human; Complement C1q subcomponent subunit B, human; Complement C1q subcomponent subunit C, human; Named only as a whole; source: bought: Calbiochem

[2] = target: T2, human C4b-binding protein (C4BP) (human, UniProt P04003 49-597; P20851 18-252); assay: as above; details: both partners purified
T2 construct: Named only as a whole ('a multimeric glycoprotein'); source: bought: Athens Research & Technology
T2 sequence (looked up) 1: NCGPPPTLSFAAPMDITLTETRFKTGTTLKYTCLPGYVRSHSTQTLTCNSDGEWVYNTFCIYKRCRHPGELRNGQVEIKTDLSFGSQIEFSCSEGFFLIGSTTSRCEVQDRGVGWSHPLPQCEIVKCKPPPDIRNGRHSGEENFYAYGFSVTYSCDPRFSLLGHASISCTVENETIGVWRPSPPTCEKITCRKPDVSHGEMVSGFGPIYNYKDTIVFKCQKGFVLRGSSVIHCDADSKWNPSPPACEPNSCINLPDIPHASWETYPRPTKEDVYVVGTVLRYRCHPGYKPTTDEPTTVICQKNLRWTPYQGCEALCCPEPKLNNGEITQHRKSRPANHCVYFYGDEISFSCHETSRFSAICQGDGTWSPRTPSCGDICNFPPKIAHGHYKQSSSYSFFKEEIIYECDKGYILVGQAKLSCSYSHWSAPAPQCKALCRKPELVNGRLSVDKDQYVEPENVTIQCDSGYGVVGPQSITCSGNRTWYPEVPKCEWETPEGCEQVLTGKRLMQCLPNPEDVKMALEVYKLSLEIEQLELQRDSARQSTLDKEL
T2 sequence (looked up) 2: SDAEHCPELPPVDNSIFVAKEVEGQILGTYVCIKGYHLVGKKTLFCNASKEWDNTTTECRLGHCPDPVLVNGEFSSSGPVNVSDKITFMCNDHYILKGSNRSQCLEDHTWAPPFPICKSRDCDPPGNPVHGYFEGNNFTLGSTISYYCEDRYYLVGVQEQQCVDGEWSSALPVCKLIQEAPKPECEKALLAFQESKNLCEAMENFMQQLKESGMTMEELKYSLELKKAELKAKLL

T1 sequence (P02745 23-245, chain 1 of 3): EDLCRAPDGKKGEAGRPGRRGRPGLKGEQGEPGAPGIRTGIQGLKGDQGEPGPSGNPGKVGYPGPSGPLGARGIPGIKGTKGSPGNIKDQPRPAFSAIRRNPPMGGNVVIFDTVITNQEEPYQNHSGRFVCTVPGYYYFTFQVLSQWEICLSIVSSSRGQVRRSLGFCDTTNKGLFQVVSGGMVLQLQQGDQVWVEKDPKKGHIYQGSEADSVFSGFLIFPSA
T1 sequence (P02746 28-253, chain 2 of 3): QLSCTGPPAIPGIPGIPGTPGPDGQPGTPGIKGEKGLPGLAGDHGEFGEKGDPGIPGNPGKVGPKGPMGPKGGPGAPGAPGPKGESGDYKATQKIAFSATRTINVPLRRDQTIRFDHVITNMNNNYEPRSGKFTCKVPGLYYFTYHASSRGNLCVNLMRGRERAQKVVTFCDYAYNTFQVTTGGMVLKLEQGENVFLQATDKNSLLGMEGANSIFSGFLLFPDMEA
T1 sequence (P02747 29-245, chain 3 of 3): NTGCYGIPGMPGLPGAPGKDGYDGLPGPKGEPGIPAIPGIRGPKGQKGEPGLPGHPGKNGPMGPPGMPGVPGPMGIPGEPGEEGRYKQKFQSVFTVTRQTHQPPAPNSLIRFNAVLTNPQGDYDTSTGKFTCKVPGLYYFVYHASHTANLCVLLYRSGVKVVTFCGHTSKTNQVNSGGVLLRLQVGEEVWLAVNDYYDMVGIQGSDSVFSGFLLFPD

B1: His-tagged PepO recombinant protein (rPepO), endopeptidase O of Streptococcus mutans (natural protein)
chain: MVRLQDDFYNAVNGQWEEAAVIPDDKPRTGGFSDLADDIEDLMLETTDKWLDGKDVPDDSILQNFVKFHRQVADYDAREETGVKPVLPLIEEYKSLTSFADFASNIATYEMAGKPNELPFGVAPDFMNAQMNVLWAEAPNLILPDTTYYAEGNDKGKELLAKWRTMQEELLPKFGFEEAEIKDLLDKVLTLDAKLAQYVLSSEESSEYVKLYHPYDWADFTKLTPELPLDAIFTQILGQKPDKVIVPEERFWTNFAAEFYSEKNWPFLKATLVLAAASSYNSYLTDDIRILSGSYNRALSGTPQAMGKKKAAFYLAQGPYNQALGLWYAGEKFSPEAKKDVEAKVATMIEVYKERLHKTDWLAQETRNKAITKLNVITPHIGYPEQLPKTYAQKIIDDNLSLVENAQNLAKISIAYNWSKWNQPVDRSEWHMPAHMVNAYYDPQQNQIVFPAAILQAPFYSLEQSSSANYGGIGAVIAHEISHAFDTNGASFDENGSLNNWWTDEDYAAFKKRTDRVVEQFEGLDSYGAKVNGQLTVSENVADLGGLACALEAAKREADFSVRDFFINFATIWRMKARDEYMQMLASIDVHAPAKWRTNVTITNFDEFHQEFAVKEGDGMWRDEDKRVIIW
notes: PepO (endopeptidase O) of Streptococcus mutans strain UA159; entire PepO coding region (1896 bp) amplified from UA159 genomic DNA and cloned into pET-16B; Vector pET-16B; also called full-length PepO; source: E. coli BL21, purified under native conditions (Ni-NTA), dialyzed in PBS
[1]
  binding result: binds
[2]
  binding result: binds
